{"source": "the nanobody polyreactivity screen of Harvey et al. (2022)", "assay": "yeast display, Sf9 membrane polyspecificity reagent, FACS + sequencing; frameworks hold sequencing errors", "outline": "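Sorting gates, low and high (top ~1%), were placed on anti-HA fluorescence to track expression and on streptavidin fluorescence to track reagent binding. A clone's polyreactivity label is taken from the gate it came out of. The reagent was 10% biotinylated, detergent-solubilized Sf9 membrane, applied for 1 hour at 4 °C to galactose-induced yeast display cells.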", "data": [{"sequence": "QVQLVESGGGLVQAGGSLRLSCAASGRIIGYNAMGWYRQAPGKERELVASIRYSGGSTYYADSVKGRFTISRDNAKNTVYLQMNSLKPEDTAVYYCATRVTYRRRFDYWGQGTQVTVSS", "values": [{"measurement": "polyreactivity (PSR sort gate)", "result": "high polyreactivity"}]}, {"sequence": "QVQLVESGGGLVQAGGSLRLSCAASGRTFRVYAMGWYRQAPGKEREFVAAITDSGGRTYYADSVKGRFTISRDNAKNTVYLQMNSLKPEDTAVYYCNAYQYYERYDTYLFRYDYWGQGTQVTVSS", "values": [{"measurement": "polyreactivity (PSR sort gate)", "result": "low polyreactivity"}]}, {"sequence": "QVQLVESGGGLVQAGGSLRLSCAASGSTFFANAMGWYRQAPGKERELVAAITIGNTNYADSVKGRFTISRDNAKNTVYLQMNSLKPEDTAVYYCNASHVSHYRARDYWGQGTQVTVSS", "values": [{"measurement": "polyreactivity (PSR sort gate)", "result": "low polyreactivity"}]}, {"sequence": "QVQLVESGGGLVQAGGSLRLSCAASGFTFPRNAMGCYRQAPGKERELVAGISKSGGSTYYADSVKGRFTISRDNAKNTVYLQMNSLKPEDTAVYYCAKAVNSPRKYQLGNGYWGQGTQVTVSS", "values": [{"measurement": "polyreactivity (PSR sort gate)", "result": "high polyreactivity"}]}, {"sequence": "QVQLVESGGGLVQAGGSLRLSCAASGSTIRVNVMGWYRQAPGKERELVAAITTSGGSTYYADSVKGRFTISRDNAKNTVYLQMNSLKPEDTAVYYCNTTYPSGWGPDMDYWGQGTQVTVSS", "values": [{"measurement": "polyreactivity (PSR sort gate)", "result": "low polyreactivity"}]}, {"sequence": "QVQLVESGGGLVQAGGSLRLSCAASGRTFPYNAMGWYRQAPGKERELVAAISWRGGSTYYADSVKGRFTISRDNAKNTVYLQMNSLKPEDTAVYYCNALYPVSYDHRGDYWGQGTQVTVSS", "values": [{"measurement": "polyreactivity (PSR sort gate)", "result": "high polyreactivity"}]}, {"sequence": "QVQLVESGGGLVQAGGSLRLSCAASGGIFYFYAMGWSRQAPGKERELVAAISSNGGRTYYADSVKGRFTISRDNAKNTVYLQMNSLKPEDTAVYYCNAVSRVSDRHLATYDYWGQGTQVTVSS", "values": [{"measurement": "polyreactivity (PSR sort gate)", "result": "high polyreactivity"}]}, {"sequence": "QVQLVESGGGLVQAGGSLRLSCAASGSTFGWYALGWYRQAPGKERELVAAIRSNGGSTYYADSVKGRFTLSRDNAKNTVYLQINSLKPEDTAVYYCAARGSPSKHHWYDYWGQGTQVTVSS", "values": [{"measurement": "polyreactivity (PSR sort gate)", "result": "low polyreactivity"}]}, {"sequence": "QVQLVESGGGLVQAGGSLRLSCAASGIIFSWNTMGWYRQAPGKERELVAAISSSGGSTYYADSVKGRFTISRDNAKNTVYLQMNSLKPEDTAVYYCAADVYHWIHEYDYWGQGTQVTVSS", "values": [{"measurement": "polyreactivity (PSR sort gate)", "result": "low polyreactivity"}]}, {"sequence": "QVQLVESGGGLVQAGGSLRLSCAASGFTFRYYAMGWYRQAPGKERELVAGITWSGTNTYYADSVKGRFTISRDNAKNTVYLQMNSLKPEDTAVYYCITSPYLHYYYWGQGTQVTVSS", "values": [{"measurement": "polyreactivity (PSR sort gate)", "result": "high polyreactivity"}]}, {"sequence": "QVQLVESGGGLVQAGGSLRLSCAASGFIFVYYAMGWYRQAPGKERELVAAITSDVNTYYADSVKGRFTISRDNAKNTVYLQMNSLKPEDTAVYYCNADADDYRDYQDYDYWGQGTQVTVSS", "values": [{"measurement": "polyreactivity (PSR sort gate)", "result": "low polyreactivity"}]}, {"sequence": "QVQLVESGGGIVQAGGSLRLSSAASGFTFDSNAMGWYRQPPGKERELVAAISASGDSTYYADSVKGRFTISRDNAKNTVYLQMNSLKPEDTAVYYCAADSYYGGWRFDHWGQGTQVTVSS", "values": [{"measurement": "polyreactivity (PSR sort gate)", "result": "low polyreactivity"}]}, {"sequence": "QVQLVESGGGLFQAGGSLRLSCAATGSTYIRYAMGWYRQAPGKEREFVAAITWSGTGTYYADSVKARFTISRDNAKNTVYLQMNSLKPEDTAVYYCAAEWSWVRYSFDYWGQGTQVTVSS", "values": [{"measurement": "polyreactivity (PSR sort gate)", "result": "high polyreactivity"}]}, {"sequence": "QVQLVESGGGLVQAGGSLRLSCAASGLIFESNAMGWYRQAPGKERELVAAITTNGGSTYYADSVKGRFTISRDNAKNTVYFQMNSLKPEVTAVYYCAALGLHQVIEYDYWGQGTQVTVSS", "values": [{"measurement": "polyreactivity (PSR sort gate)", "result": "low polyreactivity"}]}, {"sequence": "QVQLVESGGGLVQAGGSLRLSCAASGRTSRYYAMGWYRQAPGKERELVAGISWSGGNTYYADSVKGRFTISRDNAKNTVYLQMNSLKPEDTAVYYCNARIGWSPSRYGYWGQGTQVTVSS", "values": [{"measurement": "polyreactivity (PSR sort gate)", "result": "high polyreactivity"}]}, {"sequence": "QDQLVESGGGLVQAGGSLRLSCAASGFIFKYYAMGWYRQAPGKVRELVAVISISGGSTYYADSVKGRLTISRDNAKNTVYLQMNSLKPEDTAVYYCNVYWRRTSTLAFDYCGQGTQVTVSS", "values": [{"measurement": "polyreactivity (PSR sort gate)", "result": "high polyreactivity"}]}, {"sequence": "QVQLVESGGGLVQAGGSLRLSCAASGRTFYSYTMGWYRPAPGKERELVAAISSRGGSTYYADSVKGRFTISRDNAKNTVYLQMNSLKPEDTAVYYCNAARYGRHLSTYDYWGQGTQVTVSS", "values": [{"measurement": "polyreactivity (PSR sort gate)", "result": "high polyreactivity"}]}]}
